Laboratory results: publication PMC6354225, “Synthesis and Preclinical Characterization of the PSMA-Targeted Hybrid Tracer PSMA-I&F for Nuclear and Fluorescence Imaging of Prostate Cancer” (Journal of Nuclear Medicine, 2019)

Columns and labels:
[1] = set-up: method as in PMID 28721307; conditions: cited from earlier work
[2] = tested on: PSMA-positive LNCaP cells; assay: Fluorescence microscopy of ligand internalization, PSMA-positive cells; assay type: cell-based; conditions: 25 nM, 60 min, 37°C
Procedure: Competitive binding experiments (IC50) were performed in analogy to a previously published protocol ([38]) using LNCaP cells and (^125I-BA)KuE as a standard radioligand. Internalization kinetics of ^68Ga-PSMA-I&F and ^177Lu-PSMA-I&F (2 nM) were investigated in dual-tracer internalization assays using PSMA-expressing LNCaP cells and (^125I-BA)KuE (0.1 nM) as an internal reference. To differentiate between membrane-bound and internalized activity, an acid wash (50 mM NaOAc in saline, pH 4.5) was performed prior to lysis of the cells (1N NaOH) and quantification of internalized activity (lysate) using a γ-counter. […] For fluorescence microscopy, PSMA-positive LNCaP and PSMA-negative PC3 cells (seeded on glass cover slips) were incubated with the respective PSMA-I&F analog (100 or 25 nM) in the absence (total binding/internalization) or presence (nonspecific binding/internalization) of 10 μM 2-PMPA at 37 °C for 5 or 60 min. […] Ligand internalization was visualized using a Keyence BZ-9000 fluorescence microscope equipped with Cy5 (620/60 nm excitation, 700/75 nm emission), DAPI-BP (370/50 nm excitation, 447/60 nm emission), and GFP-BP (472.5/30 nm excitation, 520/35 nm emission) filters.

[3] = biological target: human serum albumin (HSA) (Homo sapiens, UniProt P02768); assay: HSA binding by gradient high-performance liquid chromatography method; assay type: in vitro ADME; conditions: plasma
Chain of human serum albumin (HSA) (P02768 25-609): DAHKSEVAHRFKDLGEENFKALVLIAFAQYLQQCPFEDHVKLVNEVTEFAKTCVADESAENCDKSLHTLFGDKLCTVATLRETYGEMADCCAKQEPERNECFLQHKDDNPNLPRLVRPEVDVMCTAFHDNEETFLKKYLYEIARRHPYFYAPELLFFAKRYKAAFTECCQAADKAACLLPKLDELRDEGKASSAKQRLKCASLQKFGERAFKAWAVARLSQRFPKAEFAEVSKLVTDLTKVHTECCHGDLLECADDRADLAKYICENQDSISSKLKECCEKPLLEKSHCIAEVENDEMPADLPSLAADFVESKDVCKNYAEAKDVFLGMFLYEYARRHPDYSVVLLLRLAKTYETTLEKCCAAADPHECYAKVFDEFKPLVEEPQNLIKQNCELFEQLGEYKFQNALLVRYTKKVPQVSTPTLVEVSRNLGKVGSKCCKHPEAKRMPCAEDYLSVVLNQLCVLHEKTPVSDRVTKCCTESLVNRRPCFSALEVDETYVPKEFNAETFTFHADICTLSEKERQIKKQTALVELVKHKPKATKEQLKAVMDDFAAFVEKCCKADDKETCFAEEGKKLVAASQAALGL
Procedure: The lipophilicity of ^68Ga- and ^177Lu-PSMA-I&F was determined via a modified shake-flask method as previously described ([38]). Plasma protein binding of both tracers was determined using 2 alternative methods, that is, incubation in fresh human plasma and subsequent ultrafiltration ([20]) and a previously established gradient high-performance liquid chromatography method for the quantification of human serum albumin (HSA) binding ([41],[42]).

LNCaP xenografts = assay: Intraoperative / ex vivo fluorescence imaging of LNCaP xenografts; assay type: in vivo, CB17 SCID mice; conditions: 2 nmol, 1 h after injection, Dino-Lite microscope and Firefly laparoscope
Procedure: Fluorescence imaging (intraoperative/ex vivo) of LNCaP xenografts in CB17 SCID mice (1 h after injection) was performed using 2 different instrumental setups: a handheld digital microscope for Cy5 (Dino-Lite Edge AM4115T-DFRW; AnMo Electronics Corp.) and DinoCapture 2.0 software (AnMo Electronics Corp.); and a 0°Firefly laparoscope that is compatible with the surgical robotic da Vinci Si system (Intuitive Surgical Inc.), using a fluid light cable for target illumination (495 FR; KARL STORZ Endoskope GmbH&Co.KG) and a bandpass filter (Edmund Optics Inc.) to isolate the Cy5 emission. Images were captured from the unprocessed Firefly video feed. For instrumental details see supplemental data.

[4] = set-up: method as in earlier work; conditions: cited from earlier work
LNCaP tumors = conditions: in vivo; cited from earlier work
[5] = tested on: tumor xenograft (PC-3 PIP); conditions: in vivo; cited from earlier work

Compound: CC1(C)C(/C=C/C=C/C=C/C=C2\N(CCCCS(=O)(=O)O)c3ccc4ccccc4c3C2(C)C)=[N+](CCCCS(=O)(=O)[O-])c2ccc3ccccc3c21 [ICG, indocyanine green]
- brightness (quantum yield) [1]: 0.3%

Compound: C[N+]1=C(/C=C/C=C/C=C2/N(CCCCCC(=O)NCCCC[C@@H](NC(=O)CCC(C(=O)O)N3CCN(CC(=O)O)CCN(CC(=O)O)CCN(CC(=O)O)CC3)C(=O)N[C@H](Cc3ccc(O)c(I)c3)C(=O)N[C@H](Cc3ccc(O)c(I)c3)C(=O)N[C@H](CCCCNC(=O)CCCCCCC(=O)NCCCC[C@H](NC(=O)N[C@@H](CCC(=O)O)C(=O)O)C(=O)O)C(=O)O)c3ccc(S(=O)(=O)O)cc3C2(C)C)C(C)(C)c2cc(S(=O)(=O)[O-])ccc21 (stereo partly drawn) [PSMA-I&F, DOTAGA-D-Lys(Nε-Sulfo-Cy5)-D-(3-iodo)Tyr-D-(3-iodo)Tyr-D-Lys(Nε-Sub-KuE)]
- Comparative ligand internalization by fluorescence microscopy [2]: highly efficient and identical ligand internalization
- fraction unbound [3]: 0.017
- Intraoperative and ex vivo fluorescence detection of tumor xenograft (LNCaP xenografts): sensitive in vivo detection of the PSMA-I&F–positive tumor xenograft with good contrast to the surrounding tissue

Compound: CN1/C(=C/C=C/C=C/C2=[N+](CCCCCC(=O)O)c3ccc(S(=O)(=O)[O-])cc3C2(C)C)C(C)(C)c2cc(S(=O)(=O)O)ccc21 [Sulfo-Cy5]
- brightness [4]: 51 × 10^3 M^−1⋅cm^−1

Compound: IRDye800CW-^68Ga-HBED-CC-KuE
- tumor-to-blood ratio (LNCaP tumors): 4.5
- tumor-to-intestines ratio (LNCaP tumors): 5.7
- tumor-to-liver ratio (LNCaP tumors): 4.9
- tumor-to-muscle ratio (LNCaP tumors): 4.8

Compound: ^111In-DOTA-Lys(Nε-IRDye800CW)-Sub-KuE
- Increase of tracer uptake in the excretion organs and the tumor xenograft (PC-3 PIP) compared with parent compound [5]: 2-4 factor
- tumor-to-blood ratio [5]: 1.4
- tumor-to-intestines ratio [5]: 7.7
- tumor-to-liver ratio [5]: 5.8
- tumor-to-muscle ratio [5]: 11.6
